Laboratory results reported in paper PMC9482650, “Quantitative fragmentomics allow affinity mapping of interactomes” (Nature Communications, 2022).

What was measured:
Test in all cases: holdup assay
Design in all cases: key: below the threshold = too weak to quantify, mostly under pKd 3.1 to 4
[1] = molecular target: T1, RHPN1, Q8TCX5
T1 sequence (Q8TCX5 508-602, limits assumed, looked up): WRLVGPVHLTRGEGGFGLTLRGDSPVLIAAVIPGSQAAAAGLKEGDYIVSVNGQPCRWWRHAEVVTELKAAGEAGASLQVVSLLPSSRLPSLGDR

[2] = molecular target: T2, TJP3_3, O95049
T2 sequence (O95049 375-456, limits assumed, looked up): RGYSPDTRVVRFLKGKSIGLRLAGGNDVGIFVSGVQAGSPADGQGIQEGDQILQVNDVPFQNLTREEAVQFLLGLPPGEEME

[3] = molecular target: Inadl_5, Q8NI35
[4] = molecular target: LIMK2, P53671
[5] = molecular target: PTPN3, P26045
[6] = molecular target: LDB3, O75112
[7] = molecular target: T3, DLG3_1, Q92796
T3 sequence (Q92796 125-227, limits assumed, looked up): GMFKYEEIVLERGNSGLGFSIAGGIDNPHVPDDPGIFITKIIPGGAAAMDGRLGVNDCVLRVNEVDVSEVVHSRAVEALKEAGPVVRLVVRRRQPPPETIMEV

[8] = molecular target: GRID2IP_1, A4D2P6
[9] = molecular target: T4, ARHGAP21, Q5T5U3
T4 sequence (Q5T5U3 45-169, limits assumed, looked up): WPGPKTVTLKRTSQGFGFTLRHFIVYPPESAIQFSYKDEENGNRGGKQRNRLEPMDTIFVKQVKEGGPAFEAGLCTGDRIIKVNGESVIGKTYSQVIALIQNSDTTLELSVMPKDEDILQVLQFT

[10] = molecular target: T5, DFNB31_1, Q9P202
T5 sequence (Q9P202 135-233, limits assumed, looked up): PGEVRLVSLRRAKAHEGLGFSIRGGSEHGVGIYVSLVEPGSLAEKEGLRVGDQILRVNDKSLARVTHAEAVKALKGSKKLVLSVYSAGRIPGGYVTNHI

[11] = molecular target: DLG4_1, P78352
[12] = molecular target: T6, PARD3B_1, Q8TEW8
T6 sequence (Q8TEW8 196-299, limits assumed, looked up): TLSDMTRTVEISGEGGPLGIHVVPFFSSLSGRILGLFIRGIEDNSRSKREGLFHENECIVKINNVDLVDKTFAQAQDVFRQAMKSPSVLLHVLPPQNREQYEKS

[13] = molecular target: T7, MPDZ_12, O75970
T7 sequence (O75970 1857-1958, limits assumed, looked up): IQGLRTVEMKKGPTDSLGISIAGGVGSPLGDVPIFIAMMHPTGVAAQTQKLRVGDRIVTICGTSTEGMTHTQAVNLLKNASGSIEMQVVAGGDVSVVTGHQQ

[14] = molecular target: T8, GRIP1_2, Q9Y3R0
T8 sequence (Q9Y3R0 145-248, limits assumed, looked up): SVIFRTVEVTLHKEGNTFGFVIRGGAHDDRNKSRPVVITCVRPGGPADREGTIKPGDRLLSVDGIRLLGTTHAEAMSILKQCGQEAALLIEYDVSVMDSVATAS

[15] = molecular target: T9, DLG3_3, Q92796
T9 sequence (Q92796 374-475, limits assumed, looked up): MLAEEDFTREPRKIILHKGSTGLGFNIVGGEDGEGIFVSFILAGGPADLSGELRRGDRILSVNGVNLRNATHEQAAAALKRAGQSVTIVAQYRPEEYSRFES

[16] = molecular target: HTRA1, Q92743
[17] = molecular target: T10, GRIP1_5, Q9Y3R0
T10 sequence (Q9Y3R0 568-668, limits assumed, looked up): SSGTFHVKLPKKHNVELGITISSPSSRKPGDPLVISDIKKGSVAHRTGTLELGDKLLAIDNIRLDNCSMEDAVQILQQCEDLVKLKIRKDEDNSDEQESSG

[18] = molecular target: FRMPD2_1, Q68DX3
[19] = molecular target: IL16_3, Q14005
[20] = molecular target: GORASP2, Q9H8Y8
[21] = molecular target: SNX27, Q96L92
[22] = molecular target: T11, LNX2_3, Q8N448
T11 sequence (Q8N448 463-564, limits assumed, looked up): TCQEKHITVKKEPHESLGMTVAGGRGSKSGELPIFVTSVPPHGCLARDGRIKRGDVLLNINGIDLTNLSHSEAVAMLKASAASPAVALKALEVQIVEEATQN

[23] = molecular target: NHERF4_1, Q86UT5-2
[24] = molecular target: GRID2IP_2, A4D2P6
[25] = molecular target: T12, GRIP1_7, Q9Y3R0
T12 sequence (Q9Y3R0 999-1096, limits assumed, looked up): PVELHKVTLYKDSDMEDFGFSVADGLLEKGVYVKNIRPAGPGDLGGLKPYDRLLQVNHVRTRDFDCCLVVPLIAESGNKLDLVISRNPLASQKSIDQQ

[26] = plain residues with an end cap or a label only (N-terminal biotin on a linker: ttds)
[27] = plain residues with an end cap or a label only (N-terminal biotin on a linker: ahx)
[28] = plain residues with an end cap or a label only (N-terminal biotin on a linker: ado-ado)

Chain of FRMPD2_1, Q68DX3 (Q68DX3 770-861): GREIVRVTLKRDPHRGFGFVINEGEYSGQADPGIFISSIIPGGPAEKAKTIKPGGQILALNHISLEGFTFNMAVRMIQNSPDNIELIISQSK
Chain of PTPN3, P26045 (P26045 505-587): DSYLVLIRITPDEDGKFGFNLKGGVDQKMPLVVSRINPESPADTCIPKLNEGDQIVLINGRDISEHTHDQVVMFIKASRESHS
Chain of IL16_3, Q14005 (Q14005 1107-1207): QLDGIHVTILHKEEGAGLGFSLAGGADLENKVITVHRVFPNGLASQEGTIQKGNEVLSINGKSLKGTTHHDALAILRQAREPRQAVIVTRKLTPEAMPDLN
Chain of Inadl_5, Q8NI35 (Q8NI35 673-780): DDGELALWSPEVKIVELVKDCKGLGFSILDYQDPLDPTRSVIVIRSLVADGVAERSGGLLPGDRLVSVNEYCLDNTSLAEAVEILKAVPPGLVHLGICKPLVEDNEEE
Chain of DLG4_1, P78352 (P78352 62-152): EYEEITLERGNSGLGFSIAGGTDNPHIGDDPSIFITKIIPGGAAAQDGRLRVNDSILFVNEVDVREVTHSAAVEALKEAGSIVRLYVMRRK
Chain of GRID2IP_1, A4D2P6 (A4D2P6 1-87): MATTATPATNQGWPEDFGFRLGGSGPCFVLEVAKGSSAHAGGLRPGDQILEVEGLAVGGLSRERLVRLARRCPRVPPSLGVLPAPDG
Chain of GRID2IP_2, A4D2P6 (A4D2P6 272-370): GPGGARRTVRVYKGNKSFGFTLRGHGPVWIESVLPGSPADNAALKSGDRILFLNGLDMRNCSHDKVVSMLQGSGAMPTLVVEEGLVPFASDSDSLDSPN
Chain of LIMK2, P53671 (P53671 143-248): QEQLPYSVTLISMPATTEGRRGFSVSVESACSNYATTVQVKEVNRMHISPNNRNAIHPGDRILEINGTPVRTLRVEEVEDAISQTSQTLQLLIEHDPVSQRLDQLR
Chain of HTRA1, Q92743 (Q92743 360-477): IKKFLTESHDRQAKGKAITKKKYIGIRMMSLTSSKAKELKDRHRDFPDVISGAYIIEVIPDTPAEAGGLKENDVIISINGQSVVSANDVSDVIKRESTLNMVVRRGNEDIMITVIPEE
Chain of NHERF4_1, Q86UT5-2 (Q86UT5 other isoform, or with tags, fused parts or gaps): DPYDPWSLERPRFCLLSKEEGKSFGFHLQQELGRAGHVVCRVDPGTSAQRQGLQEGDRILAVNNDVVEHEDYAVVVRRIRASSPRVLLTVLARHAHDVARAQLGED
Chain of LDB3, O75112 (O75112 1-94): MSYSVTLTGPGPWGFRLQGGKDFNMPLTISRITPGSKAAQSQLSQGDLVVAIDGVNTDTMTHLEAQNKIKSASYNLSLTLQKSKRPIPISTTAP

B1: GPR6, P46095 (peptide)
chain: PFRSRSPSEV
With B1 the pKd [1, 26] was “below the threshold”, the pKd [2, 26] was “below the threshold” and the pKd [3, 26] was 4.29. The pKd [4, 26] was “below the threshold”, the pKd [5, 26] was 3.95 and the pKd [6, 26] was “below the threshold”. The pKd [7, 26] was “below the threshold”, the pKd [8, 26] was “below the threshold” and the pKd [9, 26] was “below the threshold”. The pKd [10, 26] was “below the threshold”, the pKd [11, 26] was “below the threshold” and the pKd [12, 26] was 3.8. For the same binder, the pKd [13, 26] was “below the threshold”, the pKd [14, 26] was 3.52 and the pKd [15, 26] was “below the threshold”. The pKd [16, 26] was “below the threshold”, the pKd [17, 26] was “below the threshold” and the pKd [18, 26] was “below the threshold”. The pKd [19, 26] was “below the threshold”, the pKd [20, 26] was 3.81 and the pKd [21, 26] was “below the threshold”. For the same binder, the pKd [22, 26] was “below the threshold”, the pKd [23, 26] was “below the threshold” and the pKd [24, 26] was “below the threshold”. The pKd [25, 26] was 3.63.

B2: RASSF6, Q6ZTQ3 (peptide)
chain: KLVIKTETTV
For B2, the pKd [1, 26] was 3.93, the pKd [2, 26] was “below the threshold” and the pKd [3, 26] was “below the threshold”. For the same binder, the pKd [4, 26] was “below the threshold”, the pKd [5, 26] was 4.44 and the pKd [6, 26] was “below the threshold”. For the same binder, the pKd [7, 26] was 4.52, the pKd [8, 26] was “below the threshold” and the pKd [9, 26] was “below the threshold”. For the same binder, the pKd [10, 26] was “below the threshold”, the pKd [11, 26] was 5.04 and the pKd [12, 26] was “below the threshold”. For the same binder, the pKd [13, 26] was “below the threshold”, the pKd [14, 26] was “below the threshold” and the pKd [15, 26] was 4.43. The pKd [16, 26] was 3.75, the pKd [17, 26] was “below the threshold” and the pKd [18, 26] was “below the threshold”. The pKd [19, 26] was “below the threshold”, the pKd [20, 26] was 3.81 and the pKd [21, 26] was 5.03. The pKd [22, 26] was “below the threshold”, the pKd [23, 26] was “below the threshold” and the pKd [24, 26] was “below the threshold”. The pKd [25, 26] was 3.72.

B3: USH1C, Q9Y6N9 (peptide)
chain: KEYDDELTFF
B3 was tested, and the pKd [1, 27] was 4.11, the pKd [2, 27] was “below the threshold” and the pKd [3, 27] was “below the threshold”. For the same binder, the pKd [4, 27] was “below the threshold”, the pKd [5, 27] was 3.71 and the pKd [6, 27] was “below the threshold”. The pKd [7, 27] was “below the threshold”, the pKd [8, 27] was “below the threshold” and the pKd [9, 27] was 3.87. For the same binder, the pKd [10, 27] was “below the threshold”, the pKd [11, 27] was “below the threshold” and the pKd [12, 27] was 4.52. For the same binder, the pKd [13, 27] was “below the threshold”, the pKd [14, 27] was “below the threshold” and the pKd [15, 27] was “below the threshold”. The pKd [16, 27] was 4.3, the pKd [17, 27] was “below the threshold” and the pKd [18, 27] was “below the threshold”. For the same binder, the pKd [19, 27] was “below the threshold”, the pKd [20, 27] was 3.57 and the pKd [21, 27] was 4.51. The pKd [22, 27] was “below the threshold”, the pKd [23, 27] was 3.6 and the pKd [24, 27] was “below the threshold”. The pKd [25, 27] was “below the threshold”.

B4: FMNL3, Q8IVF7 (peptide)
chain: DAAHHDESNC
For B4, the pKd [1, 28] was 3.75, the pKd [2, 28] was “below the threshold” and the pKd [3, 28] was “below the threshold”. The pKd [4, 28] was “below the threshold”, the pKd [5, 28] was “below the threshold” and the pKd [6, 28] was “below the threshold”. For the same binder, the pKd [7, 28] was “below the threshold”, the pKd [8, 28] was “below the threshold” and the pKd [9, 28] was “below the threshold”. The pKd [10, 28] was “below the threshold”, the pKd [11, 28] was “below the threshold” and the pKd [12, 28] was “below the threshold”. The pKd [13, 28] was “below the threshold”, the pKd [14, 28] was “below the threshold” and the pKd [15, 28] was “below the threshold”. For the same binder, the pKd [16, 28] was 3.76, the pKd [17, 28] was “below the threshold” and the pKd [18, 28] was “below the threshold”. The pKd [19, 28] was “below the threshold”, the pKd [20, 28] was “below the threshold” and the pKd [21, 28] was 4.2. For the same binder, the pKd [22, 28] was “below the threshold”, the pKd [23, 28] was “below the threshold” and the pKd [24, 28] was “below the threshold”. The pKd [25, 28] was “below the threshold”.

B5: SLC1A3, P43003 (peptide)
chain: EKPIDSETKM
In the case of B5, the pKd [1, 28] is reported as 3.55, the pKd [2, 28] is reported as “below the threshold” and the pKd [3, 28] is reported as “below the threshold”. For the same binder, the pKd [4, 28] was “below the threshold”, the pKd [5, 28] was 4.25 and the pKd [6, 28] was “below the threshold”. The pKd [7, 28] was “below the threshold”, the pKd [8, 28] was “below the threshold” and the pKd [9, 28] was “below the threshold”. The pKd [10, 28] was 3.48, the pKd [11, 28] was 3.49 and the pKd [12, 28] was “below the threshold”. The pKd [13, 28] was “below the threshold”, the pKd [14, 28] was “below the threshold” and the pKd [15, 28] was “below the threshold”. The pKd [16, 28] was “below the threshold”, the pKd [17, 28] was “below the threshold” and the pKd [18, 28] was “below the threshold”. The pKd [19, 28] was “below the threshold”, the pKd [20, 28] was “below the threshold” and the pKd [21, 28] was 5.18. The pKd [22, 28] was “below the threshold”, the pKd [23, 28] was “below the threshold” and the pKd [24, 28] was “below the threshold”. For the same binder, the pKd [25, 28] was “below the threshold”.
